Source: ChEMBL document CHEMBL3085760, “Novel polyamine analogues: from substrates towards potential inhibitors of monoamine oxidases” (Eur J Med Chem, 2013)

Columns and labels:
[1] = substrate: NCCCCCCCCCCCCNCc1cccs1; assay: (§1) Activity at recombinant human MAO-A expressed in baculovirus infected BT1 cells assessed as hydrogen peroxide generation rate preincubated for 30 mins by Amplex Red assay
[2] = substrate: CN(CCCCCCCCCCCCN)Cc1ccccc1; assay: as §1
[3] = substrate: NCCCCCCCCCCCCNCc1ccccc1; assay: as §1
[4] = substrate: NCCCCCCCCCCCCNCc1cccs1; assay: (§2) Activity at recombinant human VAP-1 assessed as hydrogen peroxide generation rate preincubated for 30 mins by Amplex Red assay
[5] = substrate: NCCCCCCCCNCCCNCc1cccs1; assay: as §2
[6] = substrate: CN(CCCCCCCCCCCCN)Cc1ccccc1; assay: as §2
[7] = substrate: NCCCOCCCCOCCCNCc1cccs1; assay: as §2
[8] = substrate: NCCCCCCCCCCCCNCc1ccccc1; assay: as §2
[9] = substrate: NCCCCCCCCCCCCNCc1cccs1; assay: (§3) Activity at recombinant human MAO-B expressed in baculovirus infected BT1 cells assessed as hydrogen peroxide generation rate preincubated for 30 mins by Amplex Red assay
[10] = substrate: CN(CCCCCCCCCCCCN)Cc1ccccc1; assay: as §3
[11] = substrate: NCCCOCCCCOCCCNCc1cccs1; assay: as §3
[12] = substrate: NCCCCCCCCCCCCNCc1ccccc1; assay: as §3

B1: Amine oxidase [flavin-containing] A (Homo sapiens) (protein)
chain: MENQEKASIAGHMFDVVVIGGGISGLSAAKLLTEYGVSVLVLEARDRVGGRTYTIRNEHVDYVDVGGAYVGPTQNRILRLSKELGIETYKVNVSERLVQYVKGKTYPFRGAFPPVWNPIAYLDYNNLWRTIDNMGKEIPTDAPWEAQHADKWDKMTMKELIDKICWTKTARRFAYLFVNINVTSEPHEVSALWFLWYVKQCGGTTRIFSVTNGGQERKFVGGSGQVSERIMDLLGDQVKLNHPVTHVDQSSDNIIIETLNHEHYECKYVINAIPPTLTAKIHFRPELPAERNQLIQRLPMGAVIKCMMYYKEAFWKKKDYCGCMIIEDEDAPISITLDDTKPDGSLPAIMGFILARKADRLAKLHKEIRKKKICELYAKVLGSQEALHPVHYEEKNWCEEQYSGGCYTAYFPPGIMTQYGRVIRQPVGRIFFAGTETATKWSGYMEGAVEAGERAAREVLNGLGKVTEKDIWVQEPESKDVPAVEITHTFWERNLPSVSGLLKIIGFSTSVTALGFVLYKYKLLPRS
With B1 as the protein, how does the Km [1] read?
The Km was 80 µM.

What about the Km [2] of the same protein?
The Km was 44 µM.

What about the Km [3] of the same protein?
Its Km is 43 µM.

B2: Amine oxidase [copper-containing] 3 (Homo sapiens), Q16853 (protein)
chain: MNQKTILVLLILAVITIFALVCVLLVGRGGDGGEPSQLPHCPSVSPSAQPWTHPGQSQLFADLSREELTAVMRFLTQRLGPGLVDAAQARPSDNCVFSVELQLPPKAAALAHLDRGSPPPAREALAIVFFGRQPQPNVSELVVGPLPHPSYMRDVTVERHGGPLPYHRRPVLFQEYLDIDQMIFNRELPQASGLLHHCCFYKHRGRNLVTMTTAPRGLQSGDRATWFGLYYNISGAGFFLHHVGLELLVNHKALDPARWTIQKVFYQGRYYDSLAQLEAQFEAGLVNVVLIPDNGTGGSWSLKSPVPPGPAPPLQFYPQGPRFSVQGSRVASSLWTFSFGLGAFSGPRIFDVRFQGERLVYEISLQEALAIYGGNSPAAMTTRYVDGGFGMGKYTTPLTRGVDCPYLATYVDWHFLLESQAPKTIRDAFCVFEQNQGLPLRRHHSDLYSHYFGGLAETVLVVRSMSTLLNYDYVWDTVFHPSGAIEIRFYATGYISSAFLFGATGKYGNQVSEHTLGTVHTHSAHFKVDLDVAGLENWVWAEDMVFVPMAVPWSPEHQLQRLQVTRKLLEMEEQAAFLVGSATPRYLYLASNHSNKWGHPRGYRIQMLSFAGEPLPQNSSMARGFSWERYQLAVTQRKEEEPSSSSVFNQNDPWAPTVDFSDFINNETIAGKDLVAWVTAGFLHIPHAEDIPNTVTVGNGVGFFLRPYNFFDEDPSFYSADSIYFRGDQDAGACEVNPLACLPQAAACAPDLPAFSHGGFSHN
What does the source list for B2?
Km [4]: 11 µM; Km [5]: 1730 µM; Km [6]: 9 µM; Km [7]: 350 µM; Km [8]: 5 µM

B3: Amine oxidase [flavin-containing] B (Homo sapiens) (protein)
chain: MSNKCDVVVVGGGISGMAAAKLLHDSGLNVVVLEARDRVGGRTYTLRNQKVKYVDLGGSYVGPTQNRILRLAKELGLETYKVNEVERLIHHVKGKSYPFRGPFPPVWNPITYLDHNNFWRTMDDMGREIPSDAPWKAPLAEEWDNMTMKELLDKLCWTESAKQLATLFVNLCVTAETHEVSALWFLWYVKQCGGTTRIISTTNGGQERKFVGGSGQVSERIMDLLGDRVKLERPVIYIDQTRENVLVETLNHEMYEAKYVISAIPPTLGMKIHFNPPLPMMRNQMITRVPLGSVIKCIVYYKEPFWRKKDYCGTMIIDGEEAPVAYTLDDTKPEGNYAAIMGFILAHKARKLARLTKEERLKKLCELYAKVLGSLEALEPVHYEEKNWCEEQYSGGCYTTYFPPGILTQYGRVLRQPVDRIYFAGTETATHWSGYMEGAVEAGERAAREILHAMGKIPEDEIWQSEPESVDVPAQPITTTFLERHLPSVPGLLRLIGLTTIFSATALGFLAHKRGLLVRV
Which Km [9] does the source give for B3 here?
The Km was 18 µM.

And the Km [10]?
The Km was 12 µM.

And the Km [11]?
The Km was 401 µM.

What about the Km [12] of the same protein?
The Km was 50 µM.
